Assay results taken from the DeepSol protein solubility set.

Assay: soluble on expression in E. coli; label from the status in PepcDB or PDB records

Question: With “STVKRKPVFVKVEQLKPGTTGHTLTVKVIEANIVVPVTRKTRPASSLSRPSQPSRIVECLIGDETGCILFTARNDQVDLMKPGATVILRNSRIDMFKGTMRLGVDKWGRIEATGAASFTVKEDNNLSLVEYE” as the sequence, how does the “soluble on expression in E. coli” value read?
Answer: soluble

Question: Which “soluble on expression in E. coli” value does the source give for “STVLDSLQHTGRGDKVYWFCYGMKCYYFVMDRKTWSGCKQTCQSSSLSLLKIDDEDELKFLQLVVPSDSCWVGLSYDNKKKDWAWIDNRPSKLALNTRKYNIRDGGCMLLSKTRLDNGNCDQVFICICGKRLDKFPH” here?
Answer: soluble

Question: Which “soluble on expression in E. coli” value does the source give for “SVDMQSLDEEDFSVSKSSDADAEFDIVIGNIEDIIMEDEFQHLQQSFMEKYYLEFDDSEENKLSYTPIFNEYIEILEKHLEQQLVERIPGFNMDAFTHSLKQHKDEVSGDILDMLLTFTDFMAFKEMFTDYRAEKEGRGLDLSTGLVVKSLNSSSASPLTPSMASQSI” here?
Answer: not soluble

Question: With “SVLEGNPEVGSPRTSDLQHRGNKGSCVLSSPGEDAQPGEEPIKYGELIVLGCCEEGGEETEAQRGEVTGPRAHSCYNGCLASGDKGRRRSRLALSRRSHANGVKPDVMHHISTPLVSKALSNRGQHSISYTLSRSHSVIVEYTHDSDTDMFQIGRSTENMIDFVVTDTSPGGGAAEGPSAQSTISRYACRILCDRRPPYTARIYAAGFDASSNIFLGERAAKWRTPDGLMDGLTTNGVLVMHPAGGFSEDSAPGVWREISVCGNVYTLRDSRSAQQRGKLVGGPLHSPPLSLPGPHKLPIPLPKPGDDLQSFCPREPQQAPYQGIPGPGGS” as the sequence, how does the “soluble on expression in E. coli” value read?
Answer: soluble

Question: With “SVRCYVEIVEKLPERRPDPATIEGCAQLKPNNYLLAWHTPFNEKGSGFGAATKAMCIGLRYWKPERLETLIEVSVECGRMTHNHPTGFLGSLCTALFVSFAAQGKPLVQWGRDMLRAVPLAEEYCRKTIRHTAEYQEHWFYFEAKWQFYLEERKISKDSENKAIFPDNYDAEEREKTYRKWSSEGRGGRRGHDAPMIAYDALLAAGNSWTELCHRAMFHGGESAATGTIAGCLFGLLYGLDLVPKGLYQDLEDKEKLEDLGAALYRLSTEEK” as the sequence, how does the “soluble on expression in E. coli” value read?
Answer: soluble

Question: Which “soluble on expression in E. coli” value does the source give for “SVRDDLQVVLDTSPPDDTGFSTLERTMLRNILGLHDRRIADVMVHRADIVAIKQDIQLGELLSLFQDAAHSRLVVYNETLDDPVGIVHIRDLVAFMTAKAKVPPATVAKRKKALPAGLDLRAIDLKMPLTETGIIRKLLYVPPSMRAIDLLAQMQAARIHLALVVDEYGGTDGLVSIEDIVEQIVGEID” here?
Answer: soluble

Question: Which “soluble on expression in E. coli” value does the source give for “SVSPLKTRCCSPSSQQQASEAREIEQPSTVWELDFYSRPVYGKDNKRIWELIVVDESFLLCHVESVPNDMINSAELRKRVERLLEQVTVKPKVVKFSRMPMFNMISLALKDLGFEVKPSRRTYRLYHVLRDREANIYSKMPGYRSENTLSTSYLYSTERLPDALRGEKFAFCTADYSFLYELQSSDTIPYCDIFNTGDSILLEKELPGIIVYSERADSLASWTAGAEVSFIKFREEELELVLECGINSHYRLAKIAEDHRLVEEAKTFEQMKWHMKGFHFYAIQSLKETSGTSHIKGLWLLNDFMEQ” here?
Answer: soluble

Question: Which “soluble on expression in E. coli” value does the source give for “SVTGIGSGFSELDEYTAGFQPSDMIIIAARPSAGKTAFALALARNAAVNFNTPVLFFSLEMAEIQLALRLMCAEAYVESQLVRRGQISPEMMNKIINSMDALADAKLFIDDTPGISIMELTAKTRRMKQEHGIGMVVVDYLQLVTPVRDGRSNREQEIAQISRSLKALAKELNIPVIALAQLNRSVEQRSGDRRPQLSDL” here?
Answer: not soluble

Question: With “SYHTGTAYGMIDLPRILRSITTFESFGKVKIGILKKGIQAIESLLVARHQMYSAVYMHPTVRIADTMIKRAVIKEIQEKNLDIKDLANMDDIALVSFLRISENYLMERIDRRNLYKNLITYSYFDLNPIEKWIFVNLDEKQILSLESRFYEEFGWDIFIDIYPIPKMEEHNVYIISDEGVKRLDEVSPLAQSLK” as the sequence, how does the “soluble on expression in E. coli” value read?
Answer: not soluble

Question: With “TDKPRHRFFDAETEALYARLARALPGYDFALQGWNRDEDTFIVAAYNDRTPGSRYLYDARRDSLHKLADINPAIPEADMAPVRPVSYQSRDGLTIHGYLTLPAGRAPRNLACIVNPHGGPWARDGWGYNPEVQFLANRGFCVLQMNFRGSTGYGRKFWEAGFGQWGLKMQDDITDGVQWLIDQGIADPRRIGIYGGSYGGYATLAGVAFTPDLYAAAVDYVGVSNLFTFMNTIPPYWKPLLAKMQDMVGDPVRDKARLEATSPALHVDRIKTPLFIAQGAKDPRVNKAESDQVVQALRQRGVEVEYMVKDNEGHGFHNDENKFEFYAAMEKFFTEHLK” as the sequence, how does the “soluble on expression in E. coli” value read?
Answer: not soluble

Question: Which “soluble on expression in E. coli” value does the source give for “TDYAVTALRAWTRPLNYDIEHVYRITLATVQKDKDGKWKERSADQGKTMMQTLDLIAAYPGVEAACLQQWGGHYSSSSSNSSFQLDTVSLINVEDRMVSPDYFRVFRVYGADGSSPEEMAERFGKLHMNDLQRDYYLSRNALDYVEKVNGEGRESDRRYIGMSDSINYNMVSVVDGVQSEKSIRYNQTLRGLIPDQPKNEAESTGYISLKPITEEYISQNELISYSVYLRVSPEADTPDFKEQFVKRMKAVTKDDTYPVLTMNAVSEDRAGILADPVRQINNH” here?
Answer: not soluble

Question: Which “soluble on expression in E. coli” value does the source give for “TEKFTWNTNVSYSTNSNKVVALSSEKFSMDQDYFYTGYTGEPIQTTTHIVQVGKPIGTFYGLKSVDITDDGLWLVENKKGEHVLAEETDATDWQVLGNGIPKHYLNWNNTFNFFNFDLSINMRGAFGFQILNYQRMYYENAKPEIQYNRLNSAFDKVYGKTQLKDDQRYVSYYVEDGDYWKIDNVTLGYTFKLSKQHIIKNLRIYASVLNLATITGYKGMDPEVPLSSNTYGLLDAGTDNRDKYPTNRTYTFGVNLTF” here?
Answer: not soluble

Question: Which “soluble on expression in E. coli” value does the source give for “TGKFKWDLGGNISFVKNKLLSLIEGSEMYVVPSSGSNLLGGSMHALINGEPISTFYMLKMEGIYQRDDEVPAKLYAKGVRAGDVRYFDYNEDGDITDADRVNVGKAIPDFYGGITSNFSYKGFDLSLFGQFSVGGKVMAAWRGVNGSEGTDHLGLALSNVKVGDRGESVEQFFNISKEVANGYWRGEGTSNSIPRPVRIGVHTGYDYDYNVQTSTRYLEDASYFKLKTVTLGYTLPESITKKIHVNSLRFYVSADNLLAFTKYSGYDPETSFSGSPGDSNYGVDFGLQPVLRTFIFGLNLNF” here?
Answer: not soluble

Question: For “TGPQGPPGPAGPKGAKGETGPQGPPGPAGPKGAKGDSGVPLSYEFTQKVESSNGTAVFGLLSNGFVEVRITGSYSSDVFNIPYNYRPLKAGTQMALFSTSGVGVAKVGEDKITIQGYSRNAQCSGTVLYPHREF”, which “soluble on expression in E. coli” value is on record?
Answer: not soluble

Question: For “TGTAIYFIHGTADQPAAFKRVAERLIDTGLPDEICSLNLLAFDQRYQGKSIKFFAEQLKNKIKVNQHQRVILMAHSRGGLVASYFAEFLAKEASIDVPLVITMGTPFNGSYLAVKPLSWFSDSIREMEINSEFLAQLKQEIVEHSVSAYHFFIAKEDAIVPGESGYIKDYVDKYPESLHILDRHGHLSIMSSHRLVSHISSLLHDYIDDY”, which “soluble on expression in E. coli” value is on record?
Answer: not soluble

Question: With “TKDWKWKLSFNATTYKNKITSLPAEEMWSGNKKWVKGGSLYDFYLVEWAGVNPENGNPTWYRYNTNGEKITTEDYSSTTPDDKVKCGNSLPDWTGGLQSDLSFKDFTLSFLFSYSIGGKIYNGDKVSLMSQGPTGTGWSVDMLDRWTPENPYTDVPRLTTSPKSSWTNSSNRFLVDRSYLRLKNITFSYNLPKSLLNTLTLKDASIFFQAENMLTLAKQQGLDPEQTFGGSTYYRYPAMKTISFGINVKL” as the sequence, how does the “soluble on expression in E. coli” value read?
Answer: not soluble

Question: Which “soluble on expression in E. coli” value does the source give for “TLPFRIGHGFDLHRLEPGYPLIIGGIVIPHDRGCEAHSDGDVLLHCVVDAILGALGLPDIGQIFPDSDPKWKGAASSVFIKEAVRLMDEAGYEIGNLDATLILQRPKISPHKETIRSNLSKLLGADPSVVNLKAKTHEKVDSLGENRSIAAHTVILLMKK” here?
Answer: soluble

Question: With “TLSRDDAAQVAKVLSEALPYIRRFVGKTLVIKYGGNAMESEELKAGFARDVVLMKAVGINPVVVHGGGPQIGDLLKRLSIESHFIDGMRVTDAATMDVVEMVLGGQVNKDIVNLINRHGGSAIGLTGKDAELIRAKKLTVTRQTPEMTKPEIIDIGHVGEVTGVNVGLLNMLVKGDFIPVIAPIGVGSNGESYNINADLVAGKVAEALKAEKLMLLTNIAGLMDKQGQVLTGLSTEQVNELIADGTIYGGMLPKIRCALEAVQGGVTSAHIIDGRVPNAVLLEIFTDSGVGTLISNRKRH” as the sequence, how does the “soluble on expression in E. coli” value read?
Answer: soluble

Question: With “TPIINDPETVKLFLLTELQHEEREVFMVLFLDNQHRLIKKERLFLGTIYVSAVYPREIIKEALYCNAAALILAHNHPSGITEPSYSDQLITKKIQDAAELMEIRVLDHLIVGKSDCYSFAENCLL” as the sequence, how does the “soluble on expression in E. coli” value read?
Answer: not soluble

Question: For “TRNVTWNIGFNATHYRNKISRLAESKKTDIIDGHAGYVNGLYYYGEGLPMYTNYVQKYAGVSEEGKPQWYYTDKQTGEMKTTTTYSQADLYLCGDAVPDLYGGINTSLSFYGFDFSTQINYSIGGQAYDYGYQALMSPPTSTHLGYNVHKDIYKAWSPENTQSDIPQWQFNDLYSVKTSDRFLTNASSISIQNIQLGYTFSKKTLRSLYLTNLRIYVACDNVYYWSKRKGFDSRVTWNGNKDSSGEYSAVRAFSAGLSLQF”, which “soluble on expression in E. coli” value is on record?
Answer: not soluble

Question: Which “soluble on expression in E. coli” value does the source give for “TSIMAVTFKDGVILGADSRTTTGAYIANRVTDKLTRVHDKIWCCRSGSAADTQAIADIVQYHLELYTSQYGTPSTETAASVFKELCYENKDNLTAGIIVAGYDDKNKGEVYTIPLGGSVHKLPYAIAGSGSTFIYGYCDKNFRENMSKEETVDFIKHSLSQAIKWDGSSGGVIRMVVLTAAGVERLIFYPDEYEQL” here?
Answer: soluble

Question: For “TTDPILFMLSLVQQCRLSPKLAYGVIAGFRFLPLLKDEVQLIQQAHKIRGGAAESGIINKISALKRYTIPLLASAIRKAERTALAMESKGFTGSRNRTYYRTLSVNRRD”, which “soluble on expression in E. coli” value is on record?
Answer: not soluble

Question: With “TTSMIQISDAVGYLIRPLKIFKLPVDDIVLTLSIALRFIPTMLQEISTISDAQKARGSSLNSRSIAKKIKAIVPILMPLFIASVRRAEDLATAMIMRGYSDGKNRTKFRIMK” as the sequence, how does the “soluble on expression in E. coli” value read?
Answer: not soluble

Question: Which “soluble on expression in E. coli” value does the source give for “TTSRQIGSDDNTSLGTNISIDGMPLSNDAMRTQLYGITGVDRSDLYVADRTVTRRTGMNAGIDLRTISTDHIETIEIERGISSVGEGNLSSGAIRIRTKQGSAPLQMRVKADPLSKLAYVGKGFKVSKRGASIHTGIDFLHNKPDVREVLDSYKRSTLHARYSDQLNYGDMIVDLGIGLMQTFSIQDSKSDQLVNEYEETYNSKYLRSSLSFDAKVRFSGSWLNSIDWLLSADYTSDLLKRKKYYISTSGPKSMPVATESGEHEGVFLPSAYYAYYEIDNQPLYFFSRFKANTDINFTERHHHHLLYGLEARSSKNIGRGVVADPTRPPYPGNNSYIRPRPNYNIPASVYAAFFVEDRASVEWGANRLGIQAGLRATHLFNLPSSYALSRKMLIEPRIKANWQYRAEHLSINLRAGYGMENKLPTLDHLYPDKIYRDFMVLNAYMQNPELDHLITYTYIHNPENPAIRENRNVKKEIGIDMTYKRFDFSLTLFHEESRRGFEYFDSYLPIAFDRYTKLIAPLPPGHKPQKEDYIQEHHKDFFVIPTVQNSAKVVKRGIEFRLRTPYLKAINTQVEVNGAYYHTLYASGIPIMFRPIVSEYEQALYPYVGYYEGSLHKHYQRFNTNVWVNTHFPRYKLIFTSFFQIIWHDASYRGHEESEFPYAYMDLDGVVHPTSKAAILEAAATNDILKYLSRERTELYYRATYKPISLRINFKATKEFSDRMRLAFFVDNIIDINPKYKQANNTTERDWSIPYFGIETTFTL” here?
Answer: not soluble
